Assay results taken from patent publication US20210393711A1 (YISSUM RESEARCH DEVELOPMENT COMPANY OF THE HEBREW …, published 2021).

Target: T1, mouse Toll-like receptor 2 (mouse, UniProt Q9QUN7 25-784)
T1 construct: whole, on cells; also called murine TLR2; TLR2
Assay: anti-His whole-mount immunofluorescence of mouse maxillary gingival tissue (oral tissue that expresses TLR2) 24 h after oral lavage with scaTLR2-secreting Lactobacillus
Procedure: The ability of Lactobacillus transformants to secrete functional single chain antibody (scAb) in the oral cavity, and the ability of the scAb to bind to oral tissue that express TLR2 was next assessed. Mice were administered by one oral lavage the following Lactobacillus transformants: EV (empty vector transformed, negative control), scahTLR4 (single chain antibody against human TLR4, negative control), and scaTLR2 (single chain antibody against TLR2). After 24 h the mice were sacrificed, Lactobacillus persistence was assessed by culturing viable bacteria and enumerating CFU, and the maxillary gingival tissues were processed for whole mounting and stained with an antibody to the His-tag present in the single chain antibodies Similar Lactobacillus CFU were recovered in all three groups. […] In the control groups there was no detection of His-positive staining (FIG. 7A-B). Therefore, scaTLR2 is secreted by the transformed Lactobacilli in vivo, and avidly binds to oral mucosal tissue.

T1 sequence (Q9QUN7 25-784): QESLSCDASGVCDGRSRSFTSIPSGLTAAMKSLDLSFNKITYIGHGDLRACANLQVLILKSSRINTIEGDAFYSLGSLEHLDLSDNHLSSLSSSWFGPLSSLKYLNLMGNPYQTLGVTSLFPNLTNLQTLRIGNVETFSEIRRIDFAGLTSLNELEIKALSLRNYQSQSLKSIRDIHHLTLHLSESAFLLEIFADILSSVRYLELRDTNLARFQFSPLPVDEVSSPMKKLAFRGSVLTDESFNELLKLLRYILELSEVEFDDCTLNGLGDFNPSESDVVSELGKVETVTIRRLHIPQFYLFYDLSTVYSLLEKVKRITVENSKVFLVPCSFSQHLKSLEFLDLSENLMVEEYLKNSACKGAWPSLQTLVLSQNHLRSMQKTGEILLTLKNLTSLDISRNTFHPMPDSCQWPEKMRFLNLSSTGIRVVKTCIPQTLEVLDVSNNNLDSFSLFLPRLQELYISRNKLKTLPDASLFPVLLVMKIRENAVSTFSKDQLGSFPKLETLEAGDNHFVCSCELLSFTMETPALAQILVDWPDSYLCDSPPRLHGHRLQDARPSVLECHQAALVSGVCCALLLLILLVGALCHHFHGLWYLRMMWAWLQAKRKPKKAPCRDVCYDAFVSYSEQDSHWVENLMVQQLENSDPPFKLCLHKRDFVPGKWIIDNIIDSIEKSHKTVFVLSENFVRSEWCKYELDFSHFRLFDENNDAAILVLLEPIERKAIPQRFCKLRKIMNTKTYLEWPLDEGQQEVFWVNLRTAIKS

- binding result: binds
B1: anti-TLR2 single chain antibody (scAb) secreted by transformed Lactobacillus, built from the variable regions of mAb T2.5 (scFv)
scFv: QVQLQQSGPELVNPGASVKLSCKASGFTFTTYGINWVKQGPGQGLEWIGWIYPRDGSTNFNENFKDKAALTVDTSSSTAYMELHSLTSEDSAVYFCARLTGGTFLDYWGQGTTVTVSSGGGGSGGGGSGGGGSDIELTQSPASLAVSLGQRATISCRASESVEYYGTSLMQWYQQKPGQPPKLLIFGASNVESGVPVRFSGSGSGTDFSLNIHPVEEDDIVMYFCQQSRKLPWTFGGGTKLEIKR
notes: also called scaTLR2; anti-TLR2 scAb
